Source: the supplement of paper PMC10567573

B1: FAM116A (parent)
chain: TVHEVDIFRCFCPVFLHSQMLWEL

Variants of: B1
Assay: protein stability index of a GFP-peptide fusion (GPS, HEK-293T) (PSI 1-6); higher = more stable
Settings: c terminus: a fixed tail appended
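Further: lentivirally expressed fusions sorted by FACS into six bins by GFP to DsRed ratio, PSI derived from sequencing read proportions per bin multiplied by bin number.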

Variant	protein stability index
TVHEVDIFRCFCNVFLHSQMLWEL [P13N]	1.5
TVHEVDIFRCFCKVFLHSQMLWEL [P13K]	2.83
TVHEVDIFRCFCLVFLHSQMLWEL [P13L]	1
TVHEVDIFRCFCIVFLHSQMLWEL [P13I]	3.13
TVHEVDIFRCFCAVFLHSQMLWEL [P13A]	2.36
TVHEVDIFRCFCYVFLHSQMLWEL [P13Y]	1.72
TVHEVDIFRCFCPVFLHQQMLWEL [S18Q]	2.17
TVHEVDIFRCFCPVFLHLQMLWEL [S18L]	2.89
TVHEVDIFRCFCPVFLHGQMLWEL [S18G]	2.83
TVHEVDIFRCFCPVFLHDQMLWEL [S18D]	2.15
TVHEVDIFRCFCPVFLHTQMLWEL [S18T]	3.1
TVHEVDIFRCFCPVFLHWQMLWEL [S18W]	2.85
TVHEVDIFRCFCPVFLHNQMLWEL [S18N]	2.99
TVHEVDIFRCFCPVFLHFQMLWEL [S18F]	2.77
TVHEVDIFRCFCPVFLHEQMLWEL [S18E]	1.56
TVHEVDIFRCFCPVFLHYQMLWEL [S18Y]	4.23
TVHEVDIFRCFCPVFLHSQMLKEL [W22K]	1.13
TVHEVDIFRCFCPVFLHSQMLREL [W22R]	3.65
TVHEVDIFRCFCPVFLHSQMLMEL [W22M]	3.69
TVHEVDIFRCFCPVFLHSQMLTEL [W22T]	2.11
TVHEVDIFRCFCPVFLHSQMLFEL [W22F]	2.22
TVHEVDIFRCFCPVFLHSQMLHEL [W22H]	1.52
TVHEVDIFRCFCPVFLHSQMLGEL [W22G]	3.08
TVHIVDIFRCFCPVFLHSQMLWEL [E4I]	3.19

Variant	protein stability index
TVHHVDIFRCFCPVFLHSQMLWEL [E4H]	3.03
TVHQVDIFRCFCPVFLHSQMLWEL [E4Q]	1.79
TVHPVDIFRCFCPVFLHSQMLWEL [E4P]	3.77
TVHCVDIFRCFCPVFLHSQMLWEL [E4C]	1.53
TVHTVDIFRCFCPVFLHSQMLWEL [E4T]	3.43
TVHRVDIFRCFCPVFLHSQMLWEL [E4R]	3.14
TVHDVDIFRCFCPVFLHSQMLWEL [E4D]	1.46
TVHYVDIFRCFCPVFLHSQMLWEL [E4Y]	3.35
TVHSVDIFRCFCPVFLHSQMLWEL [E4S]	4.26
TVHKVDIFRCFCPVFLHSQMLWEL [E4K]	3.86
TVHEVDIFRCFCPVFLHSCMLWEL [Q19C]	2.22
TVHEVDIFRCFCPVFLHSAMLWEL [Q19A]	3.23
TVHEVDIFRCFCPVFLHSPMLWEL [Q19P]	4.4
TVHEVDIFRCFCPVFLHSSMLWEL [Q19S]	2.74
TVHEVDIFRCFCPVFLHSIMLWEL [Q19I]	1.82
TVHEVDIFRCFCPVFLHSTMLWEL [Q19T]	1.66
TVHEVDIFRCFCPVFLHSWMLWEL [Q19W]	2.73
TVHEVDIFRCFCPVFLHSQILWEL [M20I]	3.16
TVHEVDIFRCFCPVFLHSQVLWEL [M20V]	2.62
TVHEVDIFRCFCPVFLHSQYLWEL [M20Y]	3.21
TVHEVDIFRCFCPVFLHSQPLWEL [M20P]	1.4
TVHEVDIFRCFCPVFLHSQFLWEL [M20F]	2.05
TVHEVDIFRCFCPVFLHSQQLWEL [M20Q]	2.97
TVHEVDIFRCFCPVFLHSQNLWEL [M20N]	3.79

Variant	protein stability index
TVHEVDIFRCFCPVFLHSQKLWEL [M20K]	1.68
TVHEVDIFRCFCPVFLHSQLLWEL [M20L]	3.06
TVHEVDIFECFCPVFLHSQMLWEL [R9E]	4.78
TVHEVDIFFCFCPVFLHSQMLWEL [R9F]	2.13
TVHEVDIFTCFCPVFLHSQMLWEL [R9T]	1.99
TVHEVDIFACFCPVFLHSQMLWEL [R9A]	2.82
TVHEVDIFSCFCPVFLHSQMLWEL [R9S]	3.12
TVHEVDIFDCFCPVFLHSQMLWEL [R9D]	2.96
TVHEVDIFPCFCPVFLHSQMLWEL [R9P]	1.77
TVHEVDIFHCFCPVFLHSQMLWEL [R9H]	2.19
TVHEVDIFQCFCPVFLHSQMLWEL [R9Q]	3.69
TVHEVDIFRCFCPVFLMSQMLWEL [H17M]	3.23
TVHEVDIFRCFCPVFLPSQMLWEL [H17P]	2.86
TVHEVDIFRCFCPVFLRSQMLWEL [H17R]	2.65
TVHEVDIFRCFCPVFLSSQMLWEL [H17S]	3.21
TVHEVDIFRCFCPVRLHSQMLWEL [F15R]	4.41
TVHEVDIFRCFCPVYLHSQMLWEL [F15Y]	3.31
TVHEVDIFRCFCPVCLHSQMLWEL [F15C]	1.76
TVHEVDIFRCFCPVHLHSQMLWEL [F15H]	2.83
TVHEVDIFRCFCPVVLHSQMLWEL [F15V]	1.94
TVHEVDIFRCFCPVDLHSQMLWEL [F15D]	1.44
TVHEVDIFRCFCPVKLHSQMLWEL [F15K]	2.7
TVHEVDIFRCFCPVILHSQMLWEL [F15I]	3.86
TVHEWDIFRCFCPVFLHSQMLWEL [V5W]	2.47

Variant	protein stability index
TVHEKDIFRCFCPVFLHSQMLWEL [V5K]	1.93
TVHENDIFRCFCPVFLHSQMLWEL [V5N]	1.84
TVHERDIFRCFCPVFLHSQMLWEL [V5R]	4.06
TVHESDIFRCFCPVFLHSQMLWEL [V5S]	2.17
TVHETDIFRCFCPVFLHSQMLWEL [V5T]	3.3
TVHEYDIFRCFCPVFLHSQMLWEL [V5Y]	2.28
TVHEVDIFRCFCPAFLHSQMLWEL [V14A]	2.13
TVHEVDIFRCFCPLFLHSQMLWEL [V14L]	4.01
TVHEVDIFRCFCPYFLHSQMLWEL [V14Y]	1.89
TVHEVDIFRCFCPFFLHSQMLWEL [V14F]	2.97
TVHEVDIFRCFCPKFLHSQMLWEL [V14K]	2.41
TVHEVDIFRCFCPGFLHSQMLWEL [V14G]	3.26
TVHEVDIFRCFCPQFLHSQMLWEL [V14Q]	3.31
TVHEVDIFRCFCPRFLHSQMLWEL [V14R]	2.5
TVHEVDIFRCFCPVFLHSQMLWLL [E23L]	3.65
TVHEVDIFRCFCPVFLHSQMLWYL [E23Y]	2.38
TVHEVDIFRCFCPVFLHSQMLWWL [E23W]	2.4
TVHEVDIFRCFCPVFLHSQMLWKL [E23K]	3.53
TVHEVDIFRCFCPVFLHSQMLWNL [E23N]	3.34
TVHEVDIFRCFCPVFLHSQMLWIL [E23I]	3.36
TVHEVDIFRCFCPVFLHSQMLWSL [E23S]	2.37
TVHEVDIFRCFCPVFLHSQMLWRL [E23R]	1.77
TVHEVDIFRCFCPVFLHSQMLWHL [E23H]	3.28
TVHEVDIFRCFCPVFLHSQMLWEP [L24P]	1.69

Variant	protein stability index
TVHEVDIFRCFCPVFLHSQMLWEG [L24G]	3.33
TVHEVDIFRCFCPVFLHSQMLWES [L24S]	2.18
TVHEVDIFRCFCPVFLHSQMLWEC [L24C]	4.01
TVHEVDIFRCFCPVFLHSQMLWEQ [L24Q]	1.47
TVHEVDIFRCNCPVFLHSQMLWEL [F11N]	2.04
TVHEVDIFRCQCPVFLHSQMLWEL [F11Q]	1.64
TVHEVDIFRCGCPVFLHSQMLWEL [F11G]	2.22
TVHEVDIFRCRCPVFLHSQMLWEL [F11R]	1.38
TVHEVDIFRCHCPVFLHSQMLWEL [F11H]	2.82
TVHEVDIFRCKCPVFLHSQMLWEL [F11K]	2.82
TVHEVDIFRCCCPVFLHSQMLWEL [F11C]	2.65
TVHEVDYFRCFCPVFLHSQMLWEL [I7Y]	3.48
TVHEVDMFRCFCPVFLHSQMLWEL [I7M]	1.22
TVHEVDGFRCFCPVFLHSQMLWEL [I7G]	3.26
TVHEVDRFRCFCPVFLHSQMLWEL [I7R]	1.94
TVHEVDTFRCFCPVFLHSQMLWEL [I7T]	2.49
TVHEVDCFRCFCPVFLHSQMLWEL [I7C]	2.28
TVHEVDNFRCFCPVFLHSQMLWEL [I7N]	1.09
TVHEVDIFRCFCPVFLHSQMTWEL [L21T]	3.12
TVHEVDIFRCFCPVFLHSQMQWEL [L21Q]	3.05
TVHEVDIFRCFCPVFLHSQMCWEL [L21C]	3.04
TVHEVDIFRCFCPVFLHSQMRWEL [L21R]	1.77
TVHEVDIFRCFCPVFLHSQMIWEL [L21I]	3.87
TVHEVDIFRTFCPVFLHSQMLWEL [C10T]	1.93

Variant	protein stability index
TVHEVDIFRMFCPVFLHSQMLWEL [C10M]	3.4
TVHEVDIFRHFCPVFLHSQMLWEL [C10H]	4.15
TVHEVDIFRSFCPVFLHSQMLWEL [C10S]	2.89
TVHEVDIFRVFCPVFLHSQMLWEL [C10V]	2.69
TVHEVDIFRPFCPVFLHSQMLWEL [C10P]	4.46
TVHEVDIFRRFCPVFLHSQMLWEL [C10R]	2
TVHEVDIFRKFCPVFLHSQMLWEL [C10K]	2.63
LVHEVDIFRCFCPVFLHSQMLWEL [T1L]	1.68
QVHEVDIFRCFCPVFLHSQMLWEL [T1Q]	3.46
MVHEVDIFRCFCPVFLHSQMLWEL [T1M]	1.98
RVHEVDIFRCFCPVFLHSQMLWEL [T1R]	3.09
YVHEVDIFRCFCPVFLHSQMLWEL [T1Y]	2.93
PVHEVDIFRCFCPVFLHSQMLWEL [T1P]	1.67
TVHEVDIFRCFEPVFLHSQMLWEL [C12E]	1.52
TVHEVDIFRCFKPVFLHSQMLWEL [C12K]	1.79
TVHEVDIFRCFIPVFLHSQMLWEL [C12I]	2.54
TVHEVDIFRCFRPVFLHSQMLWEL [C12R]	3.5
TVHEVDIFRCFFPVFLHSQMLWEL [C12F]	2.77
TVHEVDIFRCFMPVFLHSQMLWEL [C12M]	2.97
TVHEVDINRCFCPVFLHSQMLWEL [F8N]	2.05
TVHEVDIWRCFCPVFLHSQMLWEL [F8W]	3.88
TVHEVDIARCFCPVFLHSQMLWEL [F8A]	2.53
TVHEVDIPRCFCPVFLHSQMLWEL [F8P]	2.36
TVHEVDIGRCFCPVFLHSQMLWEL [F8G]	1.07

Variant	protein stability index
TVHEVDIMRCFCPVFLHSQMLWEL [F8M]	3.18
TVHEVDIRRCFCPVFLHSQMLWEL [F8R]	1.45
TVHEVDIYRCFCPVFLHSQMLWEL [F8Y]	2.89
TVHEVDIKRCFCPVFLHSQMLWEL [F8K]	2.31
TVHEVDIVRCFCPVFLHSQMLWEL [F8V]	2.4
TVHEVDIHRCFCPVFLHSQMLWEL [F8H]	1
TVHEVDICRCFCPVFLHSQMLWEL [F8C]	2.96
TVHEVDILRCFCPVFLHSQMLWEL [F8L]	3.07
TVHEVDIFRCFCPVFEHSQMLWEL [L16E]	1.69
TVHEVDIFRCFCPVFRHSQMLWEL [L16R]	3.17
TVHEVDIFRCFCPVFNHSQMLWEL [L16N]	3.13
TVHEVDIFRCFCPVFPHSQMLWEL [L16P]	2.89
TVHEVDIFRCFCPVFGHSQMLWEL [L16G]	2.97
TVHEVDIFRCFCPVFCHSQMLWEL [L16C]	3.78
TVNEVDIFRCFCPVFLHSQMLWEL [H3N]	3.08
TVWEVDIFRCFCPVFLHSQMLWEL [H3W]	3.13
TVEEVDIFRCFCPVFLHSQMLWEL [H3E]	1.82
TVGEVDIFRCFCPVFLHSQMLWEL [H3G]	3.96
TVLEVDIFRCFCPVFLHSQMLWEL [H3L]	2.85
TVPEVDIFRCFCPVFLHSQMLWEL [H3P]	3.24
TVKEVDIFRCFCPVFLHSQMLWEL [H3K]	2.14
TVFEVDIFRCFCPVFLHSQMLWEL [H3F]	2.37
TVYEVDIFRCFCPVFLHSQMLWEL [H3Y]	3.37
TVTEVDIFRCFCPVFLHSQMLWEL [H3T]	1.85

Variant	protein stability index
TVDEVDIFRCFCPVFLHSQMLWEL [H3D]	2.26
TQHEVDIFRCFCPVFLHSQMLWEL [V2Q]	2.08
TKHEVDIFRCFCPVFLHSQMLWEL [V2K]	1.73
TEHEVDIFRCFCPVFLHSQMLWEL [V2E]	1.04
TRHEVDIFRCFCPVFLHSQMLWEL [V2R]	3.97
TYHEVDIFRCFCPVFLHSQMLWEL [V2Y]	3.92
TWHEVDIFRCFCPVFLHSQMLWEL [V2W]	2.7
TMHEVDIFRCFCPVFLHSQMLWEL [V2M]	2.05
TAHEVDIFRCFCPVFLHSQMLWEL [V2A]	1.77
TCHEVDIFRCFCPVFLHSQMLWEL [V2C]	2.57
TNHEVDIFRCFCPVFLHSQMLWEL [V2N]	1.76
TVHEVPIFRCFCPVFLHSQMLWEL [D6P]	1.7
TVHEVYIFRCFCPVFLHSQMLWEL [D6Y]	2.19
TVHEVQIFRCFCPVFLHSQMLWEL [D6Q]	2.07
TVHEVKIFRCFCPVFLHSQMLWEL [D6K]	2.61
TVHEVAIFRCFCPVFLHSQMLWEL [D6A]	4.47
TVHEVIIFRCFCPVFLHSQMLWEL [D6I]	2.2
TVHEVNIFRCFCPVFLHSQMLWEL [D6N]	3.02
TVHEVWIFRCFCPVFLHSQMLWEL [D6W]	3.69
TVHEVHIFRCFCPVFLHSQMLWEL [D6H]	2.23
